From the supplement of paper PMC12042874 come the findings set out here.

The data set can be described thus: amyloid nucleation score (Sup35N fusion, yeast selection) (log enrichment); library NNK2; higher = more nucleation; inactive = no reads after selection. In outline:
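After 24 hours of induction with 100 μM copper sulfate, psi-negative yeast expressing peptides of 20 random codons fused to Sup35N were grown for 7 days at 30°C on medium lacking adenine and uracil. Input and output plasmid inserts were sequenced with Illumina, and sequences with under 100 input reads were discarded. Scores for nucleation are the DiMSum log enrichment of output over input reads, centred on the mode score of non-aggregating sequences.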

± gives the uncertainty stated by the source.

As for RWLVRTEKSS, the amyloid nucleation score amounted to 2.03 ± 0.1.
In turn, GKTYVGYFLFNLTGTVYFKR showed an amyloid nucleation score of 0.004 ± 1.1.
In turn, MGRGPESQHFVCCHRRAWL gave an amyloid nucleation score of 1.15 ± 0.3.
The substance LLTGVISGYQIRWGTTSLNG came in with an amyloid nucleation score of 2.49 ± 0.1.
With TDLCCRLSIQLINHVYHSCL the figure was 0.351 ± 0.74; with NDRNYLSGSGESELLPDCND, -0.434 ± 0.76; with EVYYTSMERCGG, 1.36 ± 0.22.
In the case of QACRSTGNSFVLNRYMKERT, the amyloid nucleation score came to 0.215 ± 0.24.
In the case of VSSAHYV, the amyloid nucleation score is -0.657 ± 0.76.
Substance DWRRWM returned an amyloid nucleation score of 0.422 ± 0.5.
Turning to FLILAHLGIKNYNWV, the amyloid nucleation score was determined as 3.885 ± 0.037.
Substance SCSRLVFRRVVSGIISLCME showed an amyloid nucleation score of -0.901 ± 0.79.
As to TIYPDMETHLV, the amyloid nucleation score is -0.075 ± 0.49.
With SSPLVNRFPEGVYMNCK the figure was -0.15 ± 0.49; with INQFMRDFLDHLPCAYRVYN, -0.049 ± 0.55; with DSVSTVVFII, 4.47 ± 0.045.
With VWHVDTAVLTRA the figure was 1.08 ± 0.41.
Substance CTVFCLQRSFGHYSLMMLIN showed an amyloid nucleation score of 2.22 ± 0.12.
Consider LEHQSRSFMNFYTRPNKPLE, for which the amyloid nucleation score was -0.519 ± 1.
VGIFLKSYV had an amyloid nucleation score of -1.32 ± 1.
MSWAVRDSIHRNYLKFVNRR displayed an amyloid nucleation score of -0.02 ± 1.1.
As for LTRMKT, the amyloid nucleation score is -0.311 ± 0.63.
With IPRCKKW, the amyloid nucleation score stood at 3.22 ± 0.1.
For PSCRWKLHEMSTSSVQFWMK, the amyloid nucleation score stood at 5.59 ± 0.064.
The substance HNMPARKYINSLMTFHVRWP had an amyloid nucleation score of -0.321 ± 0.79.
In turn, KRNDCLFGRVALCGMFRLSA came in with an amyloid nucleation score of 0.198 ± 0.5.
For HYLAIVTWLPYRCRF, the amyloid nucleation score amounted to 0.935 ± 0.15.
In the case of YIDLLGRVCHYSLGWLCYCM, the amyloid nucleation score was -1.05 ± 1.1.
With YRVFMVPTWGGS the figure was 0.381 ± 0.56; with TGNVCQDEVNAIGRFP, -0.864 ± 0.38; with TLSSFL, -1.55 ± 0.41.
With LISRL the figure was -0.54 ± 1.1; with FPRSGYITHLDCATR, -0.589 ± 0.55.
Substance YCSWFVWSTANVSMAYIVEF had an amyloid nucleation score of -0.892 ± 0.41.
RLMVWSSL had an amyloid nucleation score of 1.87 ± 0.38.
NGLQRLITNSKFPTRWTWFG came in with an amyloid nucleation score of 0.206 ± 0.33.
NPALSSWAEGSTP returned an amyloid nucleation score of 0.299 ± 0.61.
With WLRDYRLWATT, the amyloid nucleation score was -0.223 ± 0.63.
With SRRETTYHVVMDTFPTFAIT, the amyloid nucleation score was determined as 0.943 ± 0.52.
With VHDQIPE the figure was 0.071 ± 0.79; with GRHQVIGMWCSRLFPLVRRS, 0.375 ± 0.56; with LAWLCRWGSVTYYCYSFGQV, -0.841 ± 0.62.
The substance GLLIGSDDLLASVICVITCS displayed an amyloid nucleation score of -1.15 ± 1.1.
Substance IFSNIFSFV yielded an amyloid nucleation score of 3.55 ± 0.13.
Substance CEVFYSVGRSK showed an amyloid nucleation score of -0.633 ± 1.1.
The substance SCSVTSAFRWTRCGLLRGIW gave an amyloid nucleation score of -0.048 ± 0.3.
In turn, FLCMFMFESWYDHNAVAVSY returned an amyloid nucleation score of 0.66 ± 0.57.
On to FDTLKLCSMWDLCCHITRVA, for which the amyloid nucleation score came to 5.904 ± 0.044.
For the substance SMYNSHHSELVNWLNDYIWL, the amyloid nucleation score was 2.47 ± 0.1.
With SIVKLGVYHDLPA the figure was 0.721 ± 0.66.
In the case of MNVYMGFTKVLSAVPRLLYG, the amyloid nucleation score was -0.408 ± 0.56.
DSAGASFNSCCGAE came in with an amyloid nucleation score of 0.122 ± 1.1.
With FCHRRRYIFIWNIRCLSYLN the entry was “inactive”.
With HQRLTRVLYWKVDIGQVCGI, the amyloid nucleation score stood at 4.99 ± 0.065.
HNYVINESFFFLVVVYVDAG displayed an amyloid nucleation score of 7.6 ± 0.037.
With DCLICFKDICNFENNEMIGA the figure was -0.556 ± 0.2; with AILYDHSYSYWVSFRNVKCK, 0.215 ± 0.65; with FKSQIDSECMFYLLG, -0.018 ± 0.17.
Substance VCASYMQFIDHCSKKEVWLN yielded an amyloid nucleation score of -1.1 ± 0.44.
Regarding CYSLSYLILVCR, the amyloid nucleation score turned out to be 5.73 ± 0.041.
With GTNKAYFNASFMD the figure was -0.875 ± 0.44; with VRWAKNNRMTLYLKITLRAK, -0.951 ± 0.37.
In turn, TMGTSSLVSAQLICRGTLAK registered an amyloid nucleation score of 0.172 ± 0.62.
For RGLLHFIFVITQYKGIYSNV, the amyloid nucleation score result is “inactive”.
With RFCGVVLSHSSD the figure was 7.913 ± 0.03; with LVFKAPRTITSPCCYGSNWS, 0.504 ± 0.36.
With CVCDLCVPWVLNFGR the figure was 8.914 ± 0.051.
Substance SRSVEGLKLWATNSAGHVVA came in with an amyloid nucleation score of 0.958 ± 0.3.
With FYLKFHRCGR, the amyloid nucleation score turned out to be 1.3 ± 0.11.
In the case of NNSMYILYSGYTFGCYTRGL, the amyloid nucleation score is 6.38 ± 0.066.
The substance MRPAPIINN showed an amyloid nucleation score of 1.14 ± 0.44.
On to IVSEIFSG, for which the amyloid nucleation score was -0.369 ± 1.1.
With ACRAICVPKGVGYWFCVTSE the figure was 0.54 ± 0.51; with PDGSASIGGYYGQFLL, -0.746 ± 0.62.
With ILSRTKVFYNSSCETDVMWL the figure was 4.17 ± 0.085.
With VRTWISDSCSVYWSSRLA the figure was 5.06 ± 0.084; with STWWWYLCIQARLMCMRFLA, -0.357 ± 0.23; with APFARSCDNWILGIFVFILG, 6.125 ± 0.042.
In turn, RDIGKYRMYDLTKVRAITLT returned an amyloid nucleation score of -0.353 ± 0.35.
With SIGHNSSF the figure was 0.117 ± 0.49.
For the substance SVFMFCVSEL, the amyloid nucleation score is -0.049 ± 0.63.
Substance HYVSNEHSVRRTHHRKTKLT showed an amyloid nucleation score of 0.753 ± 0.67.
On to FSMPTYSSALAFM, for which the amyloid nucleation score is -0.352 ± 0.28.
The substance LCSVQLRLMVAHNSRHLACM yielded an amyloid nucleation score of 1.5 ± 0.25.
In turn, HIFCRLRLAGNRLRSCLCNF came in with an amyloid nucleation score of -1.16 ± 1.1.
As to GDVLPNTSTGIFFSQPIMCA, the amyloid nucleation score turned out to be 0.501 ± 0.43.
Regarding MWLLWAKI, the amyloid nucleation score result is “inactive”.
The substance AWGRARNVRFYFVLRGESGL gave an amyloid nucleation score of 2.79 ± 0.12.
The substance RFICSAPAVPILIICWS registered an amyloid nucleation score of -1.65 ± 0.76.
With SFRMKAALRRGNPNRAMDLT the figure was 2.33 ± 0.098.
Take LPQMNMGFLGSLNFEGMKRA: the amyloid nucleation score stood at 1.47 ± 0.2.
In the case of VSHSSIWSGSLKKSVSCDHV, the amyloid nucleation score result was “inactive”.
With YTSGMFFMPMQALASETPHA the figure was -0.924 ± 0.61.
With EGSNYYTMVV the entry was “inactive”.
MGFLLRLCTYRCVVVIWGSI had an amyloid nucleation score of -1.08 ± 0.43.
With VALSSVFKEESCRVIRIMES the figure was -1.02 ± 0.32; with WFIASLLYISLWFYICSTMS, 0.878 ± 0.24; with EIMCLHKNALCFQCSTSGCA, 7.52 ± 0.046.
With QYVLLTLCVRIIHGSND the entry was “inactive”; with NRLLSVSEFAMDTRMRQEEA, 1.01 ± 0.36; with NHLMSMFDCSDTQMSSSSIA, 0.308 ± 0.32.
With RPWVHTGW the figure was 0.277 ± 0.57.
On to GTWKVGQSYVVRVRLFFLLW, for which the amyloid nucleation score was -0.369 ± 0.36.
With LVKLEYALSVFRENSGSNLN the figure was 1.07 ± 0.3.
GWRCSNPPASIKWCATLYSV displayed an amyloid nucleation score of 2.08 ± 0.2.
With FAQPHGCNKMCFCSLRFQYL, the amyloid nucleation score is 3.21 ± 0.12.
In turn, NIYLFMLMWDWTSYMALCCV returned an amyloid nucleation score of 3.94 ± 0.081.
With PVRRRGNLFIRRLLSFEKKL, the amyloid nucleation score result was “inactive”.
Regarding YSSPGSSPAFQRFGVVRRMN, the amyloid nucleation score entry was “inactive”.
For the substance HMGLLFKWAYTYRIAWGKLR, the amyloid nucleation score was -0.451 ± 0.79.
With RFFGLAKMRMLVKCQ the figure was 0.043 ± 0.65; with LKCPALRSSSPNDLFVP, 0.626 ± 0.65.
With WEGNEHWKCTENLVLAKTGH the entry was “inactive”.
In turn, DTRVSFRFMVTYLIMVYRFL had an amyloid nucleation score of 0.774 ± 0.22.
In turn, FGSAFTNGSVRNYVDGVQVI came in with an amyloid nucleation score of 0.648 ± 0.74.
Take LFQLGASTR: the amyloid nucleation score is 0.147 ± 0.76.
In turn, ETLSQIMFYVKIIAYDCRNP yielded an amyloid nucleation score of 2.66 ± 0.13.
GSRCITQVLA returned an amyloid nucleation score of 0.157 ± 0.49.
In the case of AVRELVYDLLASKNFWTSNA, the amyloid nucleation score came out at 0.932 ± 0.2.
With KRRKSSTTVSKVGTGLEWMG the figure was 0.874 ± 0.15; with HFILAIFLYCSIWIFEFFSL, -1.81 ± 1.
Take EKFYLDLG: the amyloid nucleation score is -0.006 ± 0.54.
Take TWRVP: the amyloid nucleation score is 0.884 ± 0.55.
Take YLTRAIIVFIS: the amyloid nucleation score is 3.66 ± 0.062.
As for MYISKVFDALLLLRREPRHR, the amyloid nucleation score entry is “inactive”.
RRVMRLWMALPCNDMIGCIQ gave an amyloid nucleation score of -0.476 ± 0.37.
With IFRNWGYSTFSHE, the amyloid nucleation score result is “inactive”.
With VSNLTQVAEVRQSNGGVFCG the figure was 0.189 ± 0.39.
Consider LCISIRD, for which the amyloid nucleation score was -0.111 ± 0.8.
The substance LFYSTPDRCKRVDVSGISLM showed an amyloid nucleation score of -0.325 ± 0.76.
With ETSFSTVRRQILSLLRLVSS the figure was 0.326 ± 0.33; with FGWGINRVYLVNM, 5.04 ± 0.088.
With WYSNAVG the figure was 1.57 ± 0.37; with SMRYNTSLRWDWVDQDAHRL, 4.25 ± 0.068.
With LVKKWVWLLCCYRISWGRLR the figure was -0.346 ± 0.28.
For SHLCQLLDDAGLTEQNNSSG, the amyloid nucleation score is 0.234 ± 0.57.
GALVR registered an amyloid nucleation score of -1.08 ± 0.55.
With LASPGTRFSFGSLVACGVVQ the figure was -0.178 ± 0.35.
SSPSYSSSSHKRTL came in with an amyloid nucleation score of 2.14 ± 0.25.
For GESNMVYCLYQGTILSFAGW, the amyloid nucleation score stood at 8.379 ± 0.04.
